From patent EP4137518A1 (Inhibrx, Inc., dated 2023) come the findings set out here.

Assay [1] deals with T1, human CD47, cell surface (Raji, CCRF-CEM, Daudi cells) (human, UniProt Q08722 19-323).
T1 construct: Endogenous CD47 on human cell lines; also called cell surface CD47; endogenous (cell surface) form of CD47
Briefly: flow cytometry on Raji cells; apparent KD from non-linear fit of median fluorescence intensities. On the technique in general: A flow cytometer gives signals particle by particle.

The target of assay [2] is T1, human CD47, cell surface (Raji, …). As to the kind of experiment: summary of the binding and blocking assays.

B1: B6H12 (antibody, V domains shown)
VH: EVQLVESGGDLVKPGGSLKLSCAASGFTFSGYGMSWVRQTPDKRLEWVATITSGGTYTYYPDSVKGRFTISRDNAKNTLYLQIDSLKSEDTAIYFCARSLAGNAMDYWGQGTSVTVSS
VL: DIVMTQSPATLSVTPGDRVSLSCRASQTISDYLHWYQQKSHESPRLLIKFASQSISGIPSRFSGSGSGSDFTLSINSVEPEDVGVYYCQNGHGFPRTFGGGTKLEIK
On to B1, for which the Kd in assay [1] turned out to be 3.79 nM.

B2: 9E4 antibody (murine) (antibody, mouse IgG1, V domains shown)
VH: EVQLRQSGPELVKPGASVKISCKASGYSFTDYYMYWVKQSRVRSLAWIGRINPYTGATGYDQNFKDKASLIVDKSSSTAYMELRSLTSEDSAVYYCARGRNRYDGWFAYWGQGTLVTV
VL: EIQMTQTTSSLSASLGDRVTISCRASQDISNYLNWYQQKPDGTVKLLIYYTSRLHSGVPSRFSGSGSGTDYSLTISNLDQEDIATYFCQQGNALPPTFGGGTNLEIK
As for B2, the binding result in assay [2] is on record as “binds”.
